In assay [1] the target is HLA-A*0201 (Human). In words: competition vs 125I standard peptide, purified HLA.
The target of assay [2] is HLA-A*2401 (human). In words: competition with 125I probe peptide, purified HLA class I.
The target of assay [3] is HLA-A*2401 (Human).
Assay [4] addresses HLA-A*0201 (Human). In words: competition vs 125I probe, purified HLA.
The next assay has as its target HLA-A*0203 (Human). As to the kind of experiment: competition vs 125I probe, purified HLA.
In the next assay the target is HLA-A*0206 (Human). As to the kind of experiment: competition vs 125I probe, purified HLA.
In another assay the target is HLA-A*0202 (Human). In words: competition vs 125I probe, purified HLA.

EALELKDA (peptide): the binding affinity ratio (ratio to standard peptide) in the assay with HLA-A*0201 (Human) [1] is -0.0002. Same read-out and setting: for ELNEALEL (peptide) the value was -0.0002. For the substance PLDGEYFT (peptide), the binding affinity ratio (ratio to standard peptide) with HLA-A*0201 (Human) [1] was -0.0002. As to RFEMFREL (p53 position 337) (peptide), the binding affinity ratio (standard IC50 / test IC50) in the assay with HLA-A*2401 (human) [2] was -0.0004. On to TFSDLWKL (p53 position 18) (peptide), for which the binding affinity ratio (standard IC50 / test IC50) with HLA-A*2401 (human) [2] was 0.0016. As for p53 peptide HMTEVVRR (position 168), the binding affinity ratio (IC50 of standard peptide/IC50 of test peptide) in the assay with HLA-A*0301 (Human) worked out at 0.0046. “p53 peptide RFEMFREL (position 337, 8 amino acids)”: the binding affinity ratio (IC50 of standard peptide/IC50 of test peptide) in the assay with HLA-A*2401 (Human) [3] was -0.0004. “p53 peptide SYGFRLGF (position 106, 8 amino acids)”: the binding affinity ratio (IC50 of standard peptide/IC50 of test peptide) with HLA-A*2401 (Human) [3] worked out at 0.028. On the same count and under the same terms, for “p53 peptide TFSDLWKL (position 18, 8 amino acids)” the value was 0.0016; for “p53 peptide TYQGSYGF (position 102, 8 amino acids)”, 0.11.

For the substance “p53 peptide … (position 102, 10 amino acids)”, in the assay with HLA-A*2401 (Human) [3], the binding affinity ratio (IC50 of standard peptide/IC50 of test peptide) is 0.12. On the same count and under the same terms, with “p53 peptide … (position 106, 9 amino acids)” the figure was 0.02; with “p53 peptide … (position 117, 10 amino acids)”, 0.0001; with “p53 peptide … (position 125, 10 amino acids)”, 5.1.

In the assay with HLA-A*0201 (Human) [4], p53.69 AAPPVAPA (peptide) came in with a half-inhibitory concentration (IC50) of 5000 nM. For the substance p53.129B7V9 ALNKMFBQV (peptide), the results for the IC50 with HLA-A*0203 (Human) and in the assay with HLA-A*0206 (Human) were 23 nM and 49 nM, respectively. With p53.135B1B7 BQLAKTBPV (peptide), the IC50 was found to be 71 nM with HLA-A*0202 (Human), 15 nM with HLA-A*0203 (Human) and 67 nM with HLA-A*0206 (Human).

Turning to p53.135B1L2B7 BLLAKTBPV (peptide), the IC50 amounted to 46 nM with HLA-A*0201 (Human) [4], 7.7 nM in the assay with HLA-A*0203 (Human) and 64 nM in the assay with HLA-A*0206 (Human).

For orientation: IC50 means the midpoint of a concentration-inhibition curve. A higher IC50 goes with weaker potency in that assay.
